Measurements reported in paper PMC7837216, “ISRIB Blunts the Integrated Stress Response by Allosterically Antagonising the Inhibitory Effect of Phosphorylated eIF2 on eIF2B” (Molecular Cell, 2021).

Columns and labels:
[1] = target: human eIF2B decamer, wild type (human) (UniProt Q14232); experiment: fluorescence polarisation; FAM-ISRIB (2.5-5 nM) bound to eIF2B, displaced by rising eIF2(αP) (0-2.5 μM) or P-eIF2α-NTD (0-40 μM); equilibrium, 30 min at room temperature; 20 mM HEPES-KOH pH 7.4, 150 mM KCl, 2 mM MgCl2, 1 mM TCEP, 0.05 mg/mL BSA, 0.01% Triton X-100; four-parameter log[inhibitor] fit
[2] = target: biotinylated, phosphorylated N-terminal domain of human eIF2α (human) (UniProt P05198); experiment: BLI; biotinylated P-eIF2α-NTD on streptavidin sensors, eIF2B in solution, without ISRIB (DMSO); 30°C; 20 mM HEPES pH 7.4, 150 mM KCl, 2 mM MgCl2, 1 mM TCEP, 0.05 mg/mL BSA, 0.01% Triton X-100; plateau values of 2-phase association fits against eIF2B concentration (9-150 nM)
[3] = target: biotinylated, phosphorylated N-terminal domain of human eIF2α (human) (UniProt P05198); experiment: BLI; as a3 but with ISRIB (1 μM) in the association and dissociation buffer

Row | IC50 [1] | K1/2max [2] | K1/2max [3] | Substance
1 | 3000 nM | – | – | biotinylated, phosphorylated N-terminal domain of human eIF2α (from UniProt P05198 1-187) (domain or fragment)
2 | – | 15.2 nM | 29.8 nM | human eIF2B decamer, wild type (from UniProt Q14232 1-305; P49770 1-351; Q9NR50 1-452; Q9UI10 1-523; Q13144 1-721) (complex)
3 | 250 nM | – | – | phosphorylated human eIF2 trimer, eIF2(αP) (from UniProt P05198 1-315; P20042 1-333; P41091 1-472) (complex)
